From article PMC8124189, “Detection of the First Epoxyalcohol Synthase/Allene Oxide Synthase (CYP74 Clan) in the Lancelet (Branchiostoma belcheri, Chordata)” (International Journal of Molecular Sciences, 2021)

Key:
Experiment in all cases: purified protein
Assay type in all cases: biochemical, Branchiostoma belcheri
Details in all cases: Na phosphate buffer (pH range 6.0-8.0 stated; optimum pH 7.0), 25 °C, substrate 5-150 μM
purified protein [1] = substrate: CC/C=C\C/C=C\C=C\[C@H](CCCCCCCC(=O)O)OO
purified protein [2] = substrate: CC/C=C\C[C@@H](/C=C/C=C\CCCCCCCC(=O)O)OO
purified protein [3] = substrate: CCCCC/C=C\C=C\[C@H](CCCCCCCC(=O)O)OO
purified protein [4] = substrate: CCCCC[C@@H](/C=C/C=C\CCCCCCCC(=O)O)OO

B1: CYP440A18 (BbEAS/AOS) (Branchiostoma belcheri) (protein)
chain: MGNAIGYLKWLGQGKQAFAPDRKEDFVETNIGFPCRVVTGNKAVQSVFDIDLFKKEEFFFGLIEIRKEFTEGVCPSVTSNGKIHEKNKALMMDVIAGAYEEIPTSTADAVLSNIATWGSTPTDFESKLMAVSAGIFLPTIFGRSTRFNPEDVNLYVKGATELRSDILAAVTREDLTETRRGMRSVLEKIKTSERYSQLIDLGRSHGLDEASTTGQLLFCVMFNAVGGTATNLVATFGRLDTISAEDRQELREEALAALRKHGGLTRAALEEMPKIESFVLEVLRTCPSPGVWSHIAARPTTVKYTTASGPKEVNIKEGERVYASPYWALRDPAVFDKPDDFVWRRFLGPEGEALREHHVTFHGRLTDSAAVNNHMCPGRDVALSVIKGSIAILNTFFGWELQERPFWTGTKVSRIGQPDNVVKVKSFWLQHPDDLKEIFPSHFEEIHDSLNSAVLQCP
notes: full-length, 458 aa; codon-adapted synthetic gene in pET-23a; C-terminal His tag; E. coli BL21(DE3)pLysS; IMAC purified
Km (purified protein [1]): 31.8 µM | kcat (purified protein [1]): 248 s⁻¹ | kcat/Km (purified protein [1]): 7.8e+06 M⁻¹ s⁻¹ | Km (purified protein [2]): 17.6 µM | kcat (purified protein [2]): 432 s⁻¹ | kcat/Km (purified protein [2]): 2.45e+07 M⁻¹ s⁻¹ | Km (purified protein [3]): 37.0 µM | kcat (purified protein [3]): 164 s⁻¹ | kcat/Km (purified protein [3]): 4.4e+06 M⁻¹ s⁻¹ | Km (purified protein [4]): 18.6 µM | kcat (purified protein [4]): 174 s⁻¹ | kcat/Km (purified protein [4]): 9.4e+06 M⁻¹ s⁻¹
